# Experimental data published in article PMC11741606 (2025).
# Numbering of substitutions follows the chain as printed.
# B1: TGEV RBD (receptor-binding domain of the transmissible gastroenteritis coronavirus spike protein) (domain or fragment)
# chain: TANLNNGFYPVSSSEVGLVNKSVVLLPSFYTHTIVNITIDLGMKRSGYGQPIASTLSNITLPMQDNNTDVYCIRSDQFSVYVHSTCKSSLWDNIFKRNCTDVLDATAVIKTGTCPFSFDKLNNYLTFNKFCLSLSPVGANCKFDVAARTRTNEQVVRSLYVIYEEGDNIVGVPSD
# Experiments:
# Assay in all cases: SPR
# [1] = biological target: T1, dAPN-Q746K ectodomain, hFc-tagged (dog (Canis lupus familiaris), UniProt P79143 33-975, Q746K)
# T1 sequence: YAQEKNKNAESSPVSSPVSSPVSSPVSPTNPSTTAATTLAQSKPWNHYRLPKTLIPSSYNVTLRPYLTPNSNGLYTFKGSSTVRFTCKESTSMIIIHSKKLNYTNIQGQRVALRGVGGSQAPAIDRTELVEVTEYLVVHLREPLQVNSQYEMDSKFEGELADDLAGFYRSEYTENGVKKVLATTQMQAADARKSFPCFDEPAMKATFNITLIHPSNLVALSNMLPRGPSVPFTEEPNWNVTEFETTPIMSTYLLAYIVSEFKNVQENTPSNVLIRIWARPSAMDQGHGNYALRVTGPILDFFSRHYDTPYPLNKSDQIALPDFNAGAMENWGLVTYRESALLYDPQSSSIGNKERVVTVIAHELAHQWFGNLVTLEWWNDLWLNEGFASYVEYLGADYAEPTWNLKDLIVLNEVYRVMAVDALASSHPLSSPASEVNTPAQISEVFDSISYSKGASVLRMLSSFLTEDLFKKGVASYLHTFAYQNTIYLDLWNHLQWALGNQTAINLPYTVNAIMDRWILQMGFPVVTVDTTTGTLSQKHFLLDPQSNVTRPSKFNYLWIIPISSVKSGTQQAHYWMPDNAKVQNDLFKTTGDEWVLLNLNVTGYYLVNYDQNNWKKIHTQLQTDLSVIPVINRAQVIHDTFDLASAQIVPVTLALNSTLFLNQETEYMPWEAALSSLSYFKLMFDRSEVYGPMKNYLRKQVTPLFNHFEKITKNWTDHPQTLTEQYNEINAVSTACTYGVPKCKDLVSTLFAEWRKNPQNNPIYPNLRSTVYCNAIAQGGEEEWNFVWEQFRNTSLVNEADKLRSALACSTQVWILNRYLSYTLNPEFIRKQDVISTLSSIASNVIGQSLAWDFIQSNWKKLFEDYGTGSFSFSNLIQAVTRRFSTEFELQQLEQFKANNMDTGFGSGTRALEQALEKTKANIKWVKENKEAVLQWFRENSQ
# [2] = biological target: T2, dAPN-H751R ectodomain, hFc-tagged (dog (Canis lupus familiaris), UniProt P79143 33-975, H751R)
# T2 sequence: T1 sequence with K714Q, H719R
# [3] = biological target: T3, dAPN-D750E ectodomain, hFc-tagged (dog (Canis lupus familiaris), UniProt P79143 33-975, D750E)
# T3 sequence: T1 sequence with K714Q, D718E
binder,measurement,setting,value
B1,Kd,[1],333 nM
same,Kd,[2],241 nM
same,Kd,[3],30.8 nM
